In patent US20250066499A1 (SUNSHINE GUOJIAN PHARMACEUTICAL SHANGHAI, published 2025):

B1: 48A11-HuV33 (antibody, human IgG4, V domains shown)
VH: QVQLVQSGAEVKKPGASVKVSCKASGYTFTSYWMHWVRQAPGQGLEWIGEINPSIGRTNYNEKFKSRVTLTRDTSTSTAYMELSSLRSEDTAVYYCARRVYGTMDYWGQGTLVTVSS
VL: DIQMTQSPSSLSASVGDRVTITCKASQDINSYLSWFQQKPGKSPKLLIYRANIWVDGVPSRFSGSGSGQDYTFTISSLQPEDIATYYCLQYDELYTFGQGTKVEIK
notes: Humanized
B2: 56B10-HuV31 (antibody, human IgG4, V domains shown)
VH: QVQLQQSGAEVKKPGASVKVSCKASGYTFTRYYIYWVRQRPGQGLEWIGWIYPGNFNTKYNEKFKGRATLTADTSASTAYMELSSLTSEDTAVYYCARDVYDYAGFAYWGQGTLVTVSS
VL: DIQLTQSPSFLSASVGDRVTITCKASQGVATAVAWYQQKPGQSPKLLIYWASTRHTGVPDRFSGSGSGTEFTLTISSLQPEDFATYYCQQYSSYPWTFGQGTKVEIK
notes: Humanized

Legend:
human CD73-His protein [1] = target: T1, human CD73-His protein (human, UniProt P21589 27-549); test: cell-based or functional assay
T1 sequence: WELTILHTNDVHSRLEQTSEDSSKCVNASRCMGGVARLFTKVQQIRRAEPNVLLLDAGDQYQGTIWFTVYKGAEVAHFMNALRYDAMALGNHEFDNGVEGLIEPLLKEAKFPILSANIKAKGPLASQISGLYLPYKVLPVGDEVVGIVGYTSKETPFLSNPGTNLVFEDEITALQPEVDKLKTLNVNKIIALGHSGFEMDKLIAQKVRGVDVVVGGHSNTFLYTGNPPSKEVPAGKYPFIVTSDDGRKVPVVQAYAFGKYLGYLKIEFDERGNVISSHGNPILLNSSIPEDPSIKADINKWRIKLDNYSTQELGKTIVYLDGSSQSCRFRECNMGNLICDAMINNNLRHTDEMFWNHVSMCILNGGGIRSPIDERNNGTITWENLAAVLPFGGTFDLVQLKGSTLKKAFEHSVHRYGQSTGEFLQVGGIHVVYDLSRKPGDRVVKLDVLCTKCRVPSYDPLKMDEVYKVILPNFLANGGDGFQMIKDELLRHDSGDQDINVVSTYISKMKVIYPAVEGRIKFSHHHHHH

mouse CD73 protein = target: T2, mouse CD73 protein (mouse, UniProt Q61503 29-549, limits assumed); test: SPR Biacore 8K, antibody captured on Protein A/G
T2 construct: Bought protein; also called CD73-mouse
T2 sequence (looked up): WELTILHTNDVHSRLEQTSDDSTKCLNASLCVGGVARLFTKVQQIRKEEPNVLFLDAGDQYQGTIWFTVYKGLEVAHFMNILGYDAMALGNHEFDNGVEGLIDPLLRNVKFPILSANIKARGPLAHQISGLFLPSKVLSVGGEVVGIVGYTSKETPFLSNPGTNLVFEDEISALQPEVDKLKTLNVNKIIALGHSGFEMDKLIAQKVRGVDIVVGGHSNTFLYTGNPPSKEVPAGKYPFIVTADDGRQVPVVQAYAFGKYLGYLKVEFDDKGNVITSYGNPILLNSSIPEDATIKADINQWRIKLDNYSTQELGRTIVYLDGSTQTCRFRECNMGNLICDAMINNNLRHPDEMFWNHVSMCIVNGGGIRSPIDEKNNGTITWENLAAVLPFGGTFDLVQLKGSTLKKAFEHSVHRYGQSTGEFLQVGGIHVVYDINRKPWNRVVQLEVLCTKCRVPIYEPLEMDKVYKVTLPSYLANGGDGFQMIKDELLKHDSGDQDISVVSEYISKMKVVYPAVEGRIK

human CD73-His protein [2] = target: T1, human CD73-His protein; test: ELISA, biotinylated CD73-His on streptavidin plate
Protocol: The ELISA plates were coated with SA protein diluted to 1.5 μg/mL in coating buffer (50 mM carbonate coating buffer, pH 9.6) and incubated overnight at 4° C. The supernatant was discarded, and the plates were washed three times with PBST. Then, 5% skimmed milk powder prepared with PBS was added for blocking and the plates were incubated for 2 h at 37° C. After washing the plates once with PBST, CD73-biotin protein (prepared by biotinylating CD73-His protein according to the EZ-Link NHS-Biotin Reagent instructions) was diluted to 0.5 μg/mL and added at 100 μL/well for incubation at room temperature for 1 h. The plates were washed three times with PBST, and the prepared murine-derived monoclonal antibodies against human CD73 were serially diluted with 1% BSA buffer prepared with PBST and added to the ELISA plates at 100 μl/well. The plates were incubated at 37° C. for 1 h. After washing the plates three times with PBST, HRP-labeled goat anti-mouse IgG secondary antibody was added and the plates were incubated for 30 min at 37° C. After washing the plates three times with PBST, the residual droplets were patted dry on absorbent paper as much as possible. Then, 100 μl of TMB color developing solution was added to each well, and the plates were incubated in the dark at room temperature for 5 min for color development. Subsequently, 50 μl of 2M H₂SO₄ stop solution was added to each well to terminate the substrate reaction. The OD values were read at 450 nm using a multimode microplate reader to analyze the binding ability of the tested antibodies to the target antigen human CD73-His.
The binding affinity of various humanized antibodies to human CD73-his protein was measured with reference to Example 3.

[3] = target: T3, CD73 protein on the surface of tumor cells (human, UniProt P21589 27-549); test: flow cytometry on A375 cells
T3 construct: whole, on cells; also called CD73 on H1975 cells; CD73 on MDA-MB-231 cells
T3 sequence (looked up): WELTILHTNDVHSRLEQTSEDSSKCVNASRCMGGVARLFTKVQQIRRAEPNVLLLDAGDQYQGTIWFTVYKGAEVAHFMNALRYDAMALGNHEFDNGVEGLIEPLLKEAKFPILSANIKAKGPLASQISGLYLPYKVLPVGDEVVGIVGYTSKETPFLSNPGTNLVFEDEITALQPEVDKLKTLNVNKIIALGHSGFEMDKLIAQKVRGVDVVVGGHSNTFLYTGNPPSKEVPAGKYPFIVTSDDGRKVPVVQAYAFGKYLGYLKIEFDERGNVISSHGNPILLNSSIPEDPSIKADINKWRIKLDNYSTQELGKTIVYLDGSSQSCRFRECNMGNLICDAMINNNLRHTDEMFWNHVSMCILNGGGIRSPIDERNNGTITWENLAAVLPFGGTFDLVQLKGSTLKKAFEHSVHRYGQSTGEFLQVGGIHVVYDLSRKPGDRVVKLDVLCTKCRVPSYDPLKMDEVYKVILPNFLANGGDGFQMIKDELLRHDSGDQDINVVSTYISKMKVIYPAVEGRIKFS
Protocol: MDA-MB-231 cells (triple-negative breast cancer), H292 cells (human lung cancer cells), and A375 cells (human malignant melanoma cells), all in their logarithmic growth phase, were collected respectively. The cells were washed once with RPMI-1640 basic medium and then adjusted to a cell concentration of 2.0×10⁶ cells/mL in RPMI-1640 basic medium containing 1% BSA (antibody diluent). The antibodies to be tested were diluted in a 3-fold gradient using the antibody diluent, and 100 μL of each concentration of the test antibodies was mixed with 100 μL of cells in a 96-well cell culture plate and incubated at 4° C. for 1 hour (the maximum working concentration of the test antibodies was 500 nM, with 1×10⁵ target cells per well). The cells were washed twice with PBS to remove unbound test antibodies. Then, the cells were mixed with 200 μL of 5 μg/mL FITC-labeled goat anti-human IgG-Fc secondary antibody and incubated at 4° C. for 30 minutes. The cells were washed twice again with PBS to remove unbound secondary antibodies, and finally, the cells were resuspended in 200 μL of PBS. The binding affinity of the test antibodies to the cells was determined using a flow cytometer.

Binder | IC50 (nM), inhibition of enzyme activity of soluble CD73-His (AMP/ATP, Cell Titer-Glo) (human CD73-His protein [1]) [nM] | binding result (mouse CD73 protein) | EC50 (human CD73-His protein [2]) [nM] | EC50 [3] [nM]
B1 | 4.27 | no binding | 0.069 | 0.789
B2 | 3.66 | no binding | 0.079 | 1.27
